Data as given in publication PMC3413365 (The Journal of Cell Biology, 2012).

B1: Lucifer yellow–labeled BiP substrate peptide (NH2-HTFPAVLGSC-COOH) (peptide)
peptide: H-HTFPAVLGSC-OH
modifications: also: Lucifer yellow iodoacetamide label, residue not given here

Assays:
Experiment in all cases: fluorescence polarisation
[1] = target: B1
[2] = target: T1, H6-tagged hamster BiP, wild type (hamster, UniProt G3I8R9 19-654)
[3] = target: T2, BiP^R470E (hamster, UniProt G3I8R9 19-654, R470E)
[4] = target: T1, H6-tagged hamster BiP, wild type; remark: listed apart in the source
[5] = target: BiP^Δ(554–654);R470E (hamster, UniProt G3I8R9 19-553, R470E)
Sequence of BiP^Δ(554–654);R470E (G3I8R9 19-553 R470E): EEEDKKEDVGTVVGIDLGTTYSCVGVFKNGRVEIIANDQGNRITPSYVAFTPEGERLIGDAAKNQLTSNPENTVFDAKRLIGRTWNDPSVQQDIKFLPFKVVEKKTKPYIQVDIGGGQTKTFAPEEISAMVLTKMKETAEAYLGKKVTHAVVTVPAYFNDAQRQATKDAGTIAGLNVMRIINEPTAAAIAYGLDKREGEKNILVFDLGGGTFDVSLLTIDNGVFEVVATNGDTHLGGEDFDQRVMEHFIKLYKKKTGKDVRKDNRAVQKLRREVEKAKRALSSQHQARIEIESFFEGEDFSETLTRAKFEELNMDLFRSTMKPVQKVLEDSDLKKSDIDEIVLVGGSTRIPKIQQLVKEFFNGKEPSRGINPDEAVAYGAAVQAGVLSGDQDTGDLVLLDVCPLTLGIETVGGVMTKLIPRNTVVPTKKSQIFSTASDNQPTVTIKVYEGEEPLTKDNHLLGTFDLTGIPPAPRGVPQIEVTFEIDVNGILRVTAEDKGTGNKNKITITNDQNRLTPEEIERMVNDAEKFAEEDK

[6] = target: Lidless BiP (Δ554-654) (hamster, UniProt G3I8R9 19-553)
Sequence of Lidless BiP (Δ554-654) (G3I8R9 19-553, stated change not applied): as the sequence (G3I8R9 19-553 R470E) above, with E452R counted along it

[7] = target: T2, BiP^R470E; remark: listed apart in the source

T1 sequence (G3I8R9 19-654): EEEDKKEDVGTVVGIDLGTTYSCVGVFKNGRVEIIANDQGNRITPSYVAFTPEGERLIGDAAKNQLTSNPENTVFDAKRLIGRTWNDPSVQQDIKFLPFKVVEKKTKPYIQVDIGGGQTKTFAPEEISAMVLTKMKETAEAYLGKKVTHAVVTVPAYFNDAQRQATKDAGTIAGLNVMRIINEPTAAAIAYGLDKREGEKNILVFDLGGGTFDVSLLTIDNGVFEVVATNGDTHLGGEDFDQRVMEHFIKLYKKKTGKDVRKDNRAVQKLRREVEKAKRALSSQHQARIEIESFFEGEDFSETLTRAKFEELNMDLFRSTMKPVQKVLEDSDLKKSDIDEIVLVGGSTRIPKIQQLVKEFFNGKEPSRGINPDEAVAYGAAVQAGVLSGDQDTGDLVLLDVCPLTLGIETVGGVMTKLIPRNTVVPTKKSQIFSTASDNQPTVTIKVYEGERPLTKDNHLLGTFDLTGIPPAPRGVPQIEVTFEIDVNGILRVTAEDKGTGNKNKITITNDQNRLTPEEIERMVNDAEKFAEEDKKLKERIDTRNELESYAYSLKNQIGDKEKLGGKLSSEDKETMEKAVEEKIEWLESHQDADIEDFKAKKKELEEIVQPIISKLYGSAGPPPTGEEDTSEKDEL
T2 sequence (G3I8R9 19-654 R470E): as the sequence (G3I8R9 19-654) above, with R452E counted along it

Binder	fold change of the peptide off-rate against wild type [1] [fold]	Kd [2] [µM]	Kd [3] [µM]	koff [4] [s⁻¹]	koff [5] [s⁻¹]	koff [6] [s⁻¹]	koff [7] [s⁻¹]
BiP^R470K (natural protein) not shown	3						
BiP^R492K (natural protein) not shown	3						
B1		13	9	0.0002	0.00328	0.0017	0.0074
